According to patent publication US20090269346A1 (RAPTOR PHARMACEUTICAL, published 2009):
Changes are numbered by the printed parent chain. Numbers in names are those of the source.

T1: RAP-IDU (fusion of RAP and human α-L-iduronidase) (human, UniProt P35475 28-653, limits assumed)
T1 construct: iduronidase served as reporter
T1 sequence: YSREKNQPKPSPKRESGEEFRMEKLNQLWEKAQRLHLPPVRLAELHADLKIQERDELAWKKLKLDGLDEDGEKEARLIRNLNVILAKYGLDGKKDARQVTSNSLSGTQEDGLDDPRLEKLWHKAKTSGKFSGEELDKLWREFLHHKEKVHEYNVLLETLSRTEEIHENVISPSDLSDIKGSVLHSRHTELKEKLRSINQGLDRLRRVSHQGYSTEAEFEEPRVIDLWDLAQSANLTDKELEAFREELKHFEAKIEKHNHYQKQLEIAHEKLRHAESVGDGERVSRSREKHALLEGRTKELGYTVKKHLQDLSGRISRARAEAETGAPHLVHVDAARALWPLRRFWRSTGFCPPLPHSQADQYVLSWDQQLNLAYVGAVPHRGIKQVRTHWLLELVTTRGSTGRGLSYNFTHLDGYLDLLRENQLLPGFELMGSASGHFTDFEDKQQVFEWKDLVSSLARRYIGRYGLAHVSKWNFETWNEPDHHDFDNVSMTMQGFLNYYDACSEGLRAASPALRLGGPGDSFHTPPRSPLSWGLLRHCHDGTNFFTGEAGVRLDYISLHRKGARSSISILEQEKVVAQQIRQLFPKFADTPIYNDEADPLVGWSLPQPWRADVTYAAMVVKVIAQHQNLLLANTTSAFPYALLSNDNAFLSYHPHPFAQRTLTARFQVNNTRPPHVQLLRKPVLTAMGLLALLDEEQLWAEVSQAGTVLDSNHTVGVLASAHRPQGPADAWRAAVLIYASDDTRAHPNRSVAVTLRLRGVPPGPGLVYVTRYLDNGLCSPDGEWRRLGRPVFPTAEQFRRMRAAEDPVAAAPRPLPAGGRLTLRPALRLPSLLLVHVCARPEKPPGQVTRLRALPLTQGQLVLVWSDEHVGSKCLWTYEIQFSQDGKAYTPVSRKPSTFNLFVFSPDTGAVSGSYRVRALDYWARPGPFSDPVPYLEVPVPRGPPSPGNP

B1: RAP d3 E217K (ligand)
chain: LDRLRRVSHQGYSTEAKFEEPRVIDLWDLEQSANLTDKELEAFREELKHFEAKIEKHNHYQKQLEIAHEKLRHAESVGDGERVSRSREKHALLEGRTKELGYTVKKHLQDLSGRISRAR
notes: forward mutant of wild-type RAP d3; also called RAP E217K; not shown: vector-encoded N-terminal tags of pET30(+)a
B2: RAP d3 K270E (ligand)
chain: B1 chain with K17E, K70E
notes: forward mutant of wild-type RAP d3; also called RAP K270E; not shown: vector-encoded N-terminal tags of pET30(+)a
B3: RAP d3 E251K (ligand)
chain: B1 chain with K17E, E51K
notes: forward mutant of wild-type RAP d3; also called RAP E251K; not shown: vector-encoded N-terminal tags of pET30(+)a
B4: RAP d3 E251K, K270E (ligand)
chain: B1 chain with K17E, E51K, K70E
notes: forward mutant of wild-type RAP d3; also called RAP E251K, K270E; not shown: vector-encoded N-terminal tags of pET30(+)a
B5: RAP d3 K256A, K270E (ligand)
chain: B1 chain with K17E, K56A, K70E
notes: forward mutant of wild-type RAP d3; also called RAP K256A, K270E; not shown: vector-encoded N-terminal tags of pET30(+)a
B6: RAP d3 H249Y (ligand)
chain: B1 chain with K17E, H49Y
notes: forward mutant of wild-type RAP d3; also called RAP H249Y; not shown: vector-encoded N-terminal tags of pET30(+)a
B7: LRP2 CR89 (receptor)
chain: not shown
notes: domain: CR8 and CR9; also called YVWR; L2 CR89; not shown: N-terminal hexahistidine and S-peptide from pET30(+)a
B8: LRP6 CR1-3 (receptor, human, UniProt O75581 1247-1363, looked up)
chain: PTCSPQQFTCFTGEIDCIPVAWRCDGFTECEDHSDELNCPVCSESQFQCASGQCIDGALRCNGDANCQDKSDEKNCEVLCLIDQFRCANGQCIGKHKKCDHNVDCSDKSDELDCYPT
notes: range 1247-1363; also called L6 CR1-3; not shown: N-terminal hexahistidine and S-peptide from pET30(+)a
B9: LRP6 CR12 (receptor, human, UniProt O75581 1247-1322, looked up)
chain: PTCSPQQFTCFTGEIDCIPVAWRCDGFTECEDHSDELNCPVCSESQFQCASGQCIDGALRCNGDANCQDKSDEKNC
notes: range 1247-1322; also called L6 CR12; not shown: N-terminal hexahistidine and S-peptide from pET30(+)a
B10: VLDLR CR6-8 (receptor)
chain: not shown
notes: range 235-358; also called V CR6-8; not shown: N-terminal hexahistidine and S-peptide from pET30(+)a
B11: RAP d3 E251K, K256A, K270E (ligand)
chain: B1 chain with K17E, E51K, K56A, K70E
notes: forward mutant of wild-type RAP d3; also called RAP E251K, K256A, K270E; not shown: vector-encoded N-terminal tags of pET30(+)a

molecular target: B7; test: solid-phase binding assay: CR protein coated on the plate, ligand titrated, anti-RAP polyclonal and HRP secondary, OD 450 nm
Experimental: (§1) Solid phase binding assays-Purified, refolded CR protein (1 μg) was bound to Nunc Maxisorp™ 96-well plates in TBS pH 8 supplemented with 5 mM CaCl₂ (TBSC) overnight at 4° C. Wells were washed with TBSC and then blocked with TBSC containing 2% bovine serum albumin (BSA). RAP ligands were then incubated with the immobilized receptor at a range of concentrations for 2 hours in the above blocking buffer supplemented with 0.05% Tween-20 at room temperature. Control wells contained no added ligand. As an additional control, to determine whether the absence of calcium affected binding, 10 mM EGTA was included in the incubation medium for some samples. Wells were washed with TBSTC and bound ligands detected with polyclonal anti-RAP (BP41/42, 1:1,000, BioMarin). Excess primary antibody was removed and wells washed before incubation with the secondary antibody, HRP-conjugated goat anti rabbit IgG (Bio-Rad). After washing, TMB substrate solutions (Bio-Rad) were added to detect HRP. Color development was stopped with 1N HCl. Absorption at 450 nm was measured with a microplate spectrophotometer (Molecular Devices). Data were plotted and Kd values derived by non-linear regression with the assumption of single-site binding (GraphPad Prism).
(§2) Next, binding of RAP d3 and RAPv2A d3 proteins to LRP1 CR3-5 and LRP2 CR89 was assessed. In order to understand the relative contributions of each RAPv2A d3 mutation to differences in affinity, we also prepared a number of RAPv2A d3 revertants and RAP d3 forward mutants, all comprising sequence variants intermediate between RAPv2A d3 and wild-type RAP d3 (FIGS. 7A and B, Table 1). Samples were tested in triplicate and experiments were repeated at least once. Values from different experiments were combined and a single mean and standard deviation obtained for each concentration of ligand tested. OD values from uncoated wells, receptor-coated wells incubated with buffer alone, and uncoated wells incubated with the highest ligand concentration all gave similar values for all conditions tested. All OD values were corrected by subtracting the OD obtained from uncoated wells.

| Binder | binding result |
| --- | --- |
| B1 | no binding (tested: 100 nM) |
| B2 | no binding (tested: 100 nM) |
| B3 | no binding (tested: 100 nM) |
| B4 | no binding (tested: 100 nM) |
| B5 | no binding (tested: 100 nM) |
| B6 | no binding (tested: 100 nM) |

molecular target: T1, RAP-IDU (fusion of RAP and human …); test: solid-phase assay: CR protein coated on the plate, RAP-IDU titrated, bound iduronidase activity read as rfu
Experimental: Initially, the binding of wild-type RAP to each CR pair or triplet was measured by solid-phase assay. Purified, refolded CR proteins were bound to Maxisorp plates during overnight incubation at 4° C. CR-loaded wells were blocked by resuspending in TBS Superblock (Pierce) supplemented with 5 mM CaCl2 (blocking buffer) and incubating for 1 hour at room temperature. Blocking buffer was removed and wells were washed once in TBS supplemented with 5 mM CaCl2 and 0.05% Tween-20 (wash buffer). Washed wells were incubated with 10 nM purified RAP-IDU (Tanimoto, et al., (2005) Br J Cancer 92, 278-283) for 2 hours at room temperature in blocking buffer. […] Wells were washed four times with wash buffer and resuspended in acidic PBS pH 5.6 supplemented with 200 μg/mL BSA (assay buffer). Iduronidase activity was measured as described previously using the fluorescent substrate 4-MU-α-L-iduronide (Tanimoto, et al., (2005) Br J Cancer 92, 278-283). No binding of RAP-IDU to empty wells was measured. […] RAP bound more weakly to other CR proteins, with dissociation constants from 30 to over 1000 nM.

| Binder | Kd |
| --- | --- |
| B7 | 29 nM |
| B8 | 328 nM |
| B9 | > 1000 nM |
| B10 | 170 nM |

molecular target: B7; test: solid-phase assay, coated CR protein, anti-RAP, OD450
Experimental: (§3) Percent of maximum binding is the ratio of the OD at the highest concentration tested for each ligand and the highest OD measured for all such ligands at that concentration.
as §1
as §2, with “tested.” for “tested. OD values from uncoated wells, receptor-coated wells incubated with buffer alone, and uncoated wells incubated with the highest ligand concentration all gave similar values for all conditions tested. All OD values were corrected by subtracting the OD obtained from uncoated wells.”

| Binder | % max (percent of maximum binding) | Kd |
| --- | --- | --- |
| B1 | 5% |  |
| B2 | 2% |  |
| B11 | 40% | 114 nM |
| B3 | 5% |  |
| B4 | 2% |  |
| B5 | 3% |  |
| B6 | 2% |  |

molecular target: T2, LRP1 CR3-5 (human); test: as above
T2 construct: range 852-973; Amplified from human cDNA; also called L1 CR3-5
Experimental: as §3, §1
as §2, with “tested.” for “tested. OD values from uncoated wells, receptor-coated wells incubated with buffer alone, and uncoated wells incubated with the highest ligand concentration all gave similar values for all conditions tested. All OD values were corrected by subtracting the OD obtained from uncoated wells.”

T2 sequence (Q07954 852-973): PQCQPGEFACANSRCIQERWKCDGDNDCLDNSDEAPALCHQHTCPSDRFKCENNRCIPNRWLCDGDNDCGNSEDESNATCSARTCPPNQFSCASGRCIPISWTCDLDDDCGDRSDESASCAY

| Binder | % max (percent of maximum binding) | Kd |
| --- | --- | --- |
| B1 | 91% | 9 nM |
| B2 | 4% |  |
| B11 | 2% |  |
| B3 | 100% | 7 nM |
| B4 | 4% |  |
| B5 | 2% |  |
| B6 | 90% | 28 nM |
